# Where a chain is given by its changes, count along the chain named.
# B1: 04H1654-KT498/04L1610-lam1//04H1656-HT518/04L1610-lam1 (antibody, human IgG1, lambda)
# heavy 1: QVQLVESGGGVVQPGGSLRLSCAASGFTFSSKTMNWVRQAPGKGLEWVSSISTQSHYIYYARSVRGRFTISRDNAKNSLYLQMNSLRAEDTAVYYCARYGKREDMLWVFDYWGQGTLVTVSSASTKGPSVFPLAPSSKSTSGGTAALGCLVKDYFPEPVTVSWNSGALTSGVHTFPAVLQSSGLYSLSSVVTVPSSSLGTQTYICNVNHKPSNTKVDKRVEPKSCDKTHTCPPCPAPEFQWGPMVFLFPPKPKDVLMISRTPEVTCVVVDVSDEEPEVKFNWYVDGVEVHNAKTKPREEQYNATYRVVSVLPVLHQDWLNGKEYKCKVSNKALPMPIEKTISKAKGQPREPQVYTLPPSRKEMTKNQVSLTCLVKGFYPSDIAVEWESNGQPENNYKTTPPVLDSDGSFFLYSKLTVDKSRWQQGNVFSCSVMHEALHNHYTQKSLSLSP
# heavy 2: QVQLVESGGGVVQPGGSLRLSCAASGFTFSSKTMNWVRQAPGKGLEWVSSISTQSHYIYYAESVRGRFTISRDNAKNSLYLQMNSLRAEDTAVYYCARYGAREDMLWVFDYWGQGTLVTVSSASTKGPSVFPLAPSSKSTSGGTAALGCLVKDYFPEPVTVSWNSGALTSGVHTFPAVLQSSGLYSLSSVVTVPSSSLGTQTYICNVNHKPSNTKVDKRVEPKSCDKTHTCPPCPAPELLGGPSVFLFPPKPKDVLMISRTPEVTCVVVDVSHEEPEVKFNWYVDGVEVHNAKTKPREEQYNATYRVVSVLPVLHQDWLNGKEYKCKVSNDALPMPIEETISKAKGQPREPQVYTLPPSREEMTKNQVSLTCLVKGFYPSDIAVEWESNGQPENNYKTTPPVLDSDGSFFLYSKLTVDKSRWQQGNVFSCSVMHEALHNHYTQESLSLSP
# light: QSALTQPPSASGSPGQSVTISCEGPSTGVGDYNWVHWYQQHPGKAPKLMIYFTSKKPSGVPDRFSGSKSGNTASLTVSGLQAEDEADYYCQTYAAPLGPMFGGGTKLTVLGQPKAAPSVTLFPPSSEELQANKATLVCLISDFYPGAVTVAWKADSSPVKAGVETTTPSKQSNNKYAASSYLSLTPEQWKSHRSYSCQVTHEGSTVEKTVAPTECS
# notes: also called SW1610-ART12
# How the values were obtained:
# Experiment in all cases: SPR Biacore 8k+ 25C, antibody captured, FcγR analyte; mean
# [1] = target: T1, human FcγRIa extracellular domain with C-terminal His tag (human, UniProt P12314 16-288)
# T1 construct: also called hFcγRIa
# Experimental: (§1) Here, Tremfya (Janssen Pharmaceutical K.K), which is an IgG1 antibody in which the L-chain is a X-chain, was also evaluated as a control. The binding activity was evaluated at 25° C. using as a running buffer 50 mM phosphate buffer, 150 mM NaCl, 0.05 w/v %-P20, pH7.4. As a molecule for ligand capture, CaptureSelect (trademark) Human Fab-lambda Kinetics Biotin Conjugate (ThermoFisher scientific) was immobilized onto a Series S Sensor chip SA sensor chip (Cytiva). An antibody solution prepared with the running buffer was allowed to interact with the SA sensor chip for capturing about 250 RU, or 500 RU, or about 1000 RU, of antibody. Then, hFcγRs and cyFcγRs diluted with the running buffer were allowed to bind to the captured antibodies. […] The chip was regenerated using 10 mM Glycine-HCl (pH 1.5), and measurements were performed by repeatedly capturing the antibodies. The binding activity of each antibody for each FcγR was evaluated by calculating the KD value using the Biacore Insight Evaluation Software with the Steady state model or 1:1 binding model.
# [2] = target: T2, human FcγRIIb extracellular domain with C-terminal His tag (human, UniProt P31994 43-217)
# T2 construct: also called hFcγRIIb
# T2 sequence: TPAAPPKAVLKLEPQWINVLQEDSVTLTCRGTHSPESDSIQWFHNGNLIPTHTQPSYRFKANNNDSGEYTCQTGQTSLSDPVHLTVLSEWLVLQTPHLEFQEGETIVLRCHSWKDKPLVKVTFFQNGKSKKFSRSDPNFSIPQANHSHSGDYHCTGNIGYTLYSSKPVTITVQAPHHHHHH
# Experimental: as §1
# [3] = target: T3, human FcγRIIIa(V) extracellular domain with C-terminal His tag (human, UniProt P08637 17-208)
# T3 construct: also called hFcγRIIIa(V)
# Experimental: as §1
# [4] = target: T4, human FcγRIIa(R) extracellular domain with C-terminal His tag (human, UniProt P12318 34-217)
# T4 construct: also called hFcγRIIa(R)
# T4 chain: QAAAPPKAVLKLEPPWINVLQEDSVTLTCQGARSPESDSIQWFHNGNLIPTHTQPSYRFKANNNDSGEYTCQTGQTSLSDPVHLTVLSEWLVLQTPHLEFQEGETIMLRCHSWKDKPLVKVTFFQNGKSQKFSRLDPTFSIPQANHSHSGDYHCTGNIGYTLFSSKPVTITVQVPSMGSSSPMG
# Experimental: as §1
# [5] = target: T5, human FcγRIIa(H) extracellular domain with C-terminal His tag (human, UniProt P12318 34-217)
# T5 construct: also called hFcγRIIa(H)
# T5 sequence: T4 chain with R134H
# Experimental: as §1
# [6] = target: T6, human FcγRIIIa(F) extracellular domain with C-terminal His tag (human, UniProt P08637 17-208)
# T6 construct: also called hFcγRIIIa(F)
# Experimental: as §1
# [7] = target: T7, cynomolgus monkey FcγRIIb extracellular domain with His tag (cynomolgus monkey)
# T7 construct: also called cyFcγRIIb
# T7 chain: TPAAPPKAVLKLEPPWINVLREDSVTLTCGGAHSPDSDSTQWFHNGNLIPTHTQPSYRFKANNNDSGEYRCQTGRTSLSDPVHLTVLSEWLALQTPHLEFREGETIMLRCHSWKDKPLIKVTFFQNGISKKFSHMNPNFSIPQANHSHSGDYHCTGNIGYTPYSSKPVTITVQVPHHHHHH
# Experimental: as §1
# [8] = target: T8, cynomolgus monkey FcγRIIa1 extracellular domain with His tag (cynomolgus monkey)
# T8 construct: also called cyFcγRIIa1
# T8 chain: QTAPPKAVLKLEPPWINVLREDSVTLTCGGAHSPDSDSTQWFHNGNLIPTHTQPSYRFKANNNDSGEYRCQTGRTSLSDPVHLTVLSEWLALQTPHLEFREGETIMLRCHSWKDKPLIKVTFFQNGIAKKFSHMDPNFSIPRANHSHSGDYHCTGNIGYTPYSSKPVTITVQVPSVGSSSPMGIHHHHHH
# Experimental: as §1
# [9] = target: T9, cynomolgus monkey FcγRIIa2 extracellular domain with His tag (cynomolgus monkey)
# T9 construct: also called cyFcγRIIa2
# T9 chain: T8 chain with P95T, T121A, I127K, A128S, K130N, D135N, R142Q
# Experimental: as §1
# [10] = target: T10, cynomolgus monkey FcγRIIa3 extracellular domain with His tag (cynomolgus monkey)
# T10 construct: also called cyFcγRIIa3
# T10 chain: T8 chain with P95T, T121A, A128S, H133P, D135N
# Experimental: as §1
# [11] = target: T11, cynomolgus monkey FcγRIIIa(S) extracellular domain with His tag (cynomolgus monkey, UniProt Q8SPW2 21-206 at identity 1.00))
# T11 construct: also called cyFcγRIIIa(S)
# T11 chain: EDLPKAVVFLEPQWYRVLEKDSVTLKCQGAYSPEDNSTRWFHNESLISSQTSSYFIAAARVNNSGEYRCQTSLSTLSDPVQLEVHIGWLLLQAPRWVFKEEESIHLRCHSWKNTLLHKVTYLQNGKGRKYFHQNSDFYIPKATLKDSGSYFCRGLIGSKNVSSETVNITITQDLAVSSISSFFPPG
# Experimental: as §1
# [12] = target: T12, cynomolgus monkey FcγRIa extracellular domain with His tag (cynomolgus monkey, UniProt P12314 16-288 (human entry))
# T12 construct: also called cyFcγRIa
# T12 chain: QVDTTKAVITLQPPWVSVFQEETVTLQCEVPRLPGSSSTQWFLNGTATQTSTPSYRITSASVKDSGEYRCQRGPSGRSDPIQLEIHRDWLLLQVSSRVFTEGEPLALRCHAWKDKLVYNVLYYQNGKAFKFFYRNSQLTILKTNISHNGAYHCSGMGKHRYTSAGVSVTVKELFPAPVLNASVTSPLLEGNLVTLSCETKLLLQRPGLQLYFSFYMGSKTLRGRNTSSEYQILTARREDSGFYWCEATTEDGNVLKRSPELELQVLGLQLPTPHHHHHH
# Experimental: as §1
# [13] = target: T13, cynomolgus monkey FcγRIIIa(R) extracellular domain with His tag (cynomolgus monkey, UniProt Q8SPW2 17-208)
# T13 construct: also called cyFcγRIIIa(R)
# T13 sequence (Q8SPW2 other isoform, or with tags, fused parts or gaps): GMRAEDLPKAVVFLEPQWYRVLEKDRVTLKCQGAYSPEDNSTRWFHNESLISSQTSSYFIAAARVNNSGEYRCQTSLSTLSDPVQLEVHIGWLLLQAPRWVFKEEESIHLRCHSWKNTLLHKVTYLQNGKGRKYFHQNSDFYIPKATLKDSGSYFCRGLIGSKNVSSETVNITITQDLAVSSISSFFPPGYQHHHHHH
# Experimental: as §1
# T3 sequence (P08637 other isoform, or with tags, fused parts or gaps): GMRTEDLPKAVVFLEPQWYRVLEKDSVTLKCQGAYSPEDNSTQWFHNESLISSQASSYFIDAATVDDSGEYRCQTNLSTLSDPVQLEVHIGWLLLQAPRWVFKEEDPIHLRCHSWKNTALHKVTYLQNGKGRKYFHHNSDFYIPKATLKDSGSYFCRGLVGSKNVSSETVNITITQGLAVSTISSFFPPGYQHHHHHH
# T6 sequence (P08637 other isoform, or with tags, fused parts or gaps): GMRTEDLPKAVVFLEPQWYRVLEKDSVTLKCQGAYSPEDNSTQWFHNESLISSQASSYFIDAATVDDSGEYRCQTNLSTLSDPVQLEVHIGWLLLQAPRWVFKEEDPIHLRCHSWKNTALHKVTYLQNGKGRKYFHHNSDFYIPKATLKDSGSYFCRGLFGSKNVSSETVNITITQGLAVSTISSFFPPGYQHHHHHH
binder,measurement,setting,value
B1,Kd,[1],0.0387 nM
same,Kd,[2],38800 nM
same,Kd,[3],1.82 nM
same,Kd,[4],1790 nM
same,Kd,[5],343 nM
same,Kd,[6],4.13 nM
same,Kd,[7],2520 nM
same,Kd,[8],540 nM
same,Kd,[9],2320 nM
same,Kd,[10],5290 nM
same,Kd,[11],0.933 nM
same,Kd,[12],0.0106 nM
same,Kd,[13],1.01 nM
